Numbering of substitutions follows the chain as printed.
B1: unnamed (protein)
chain: MKAPLFKLAAFTLGVSLSSVALATNPGGGGAGSNPDTGTGFPGVSSFSADGSFATTSGSAGLSCTVFRPSTLGANGLKHPIIVWGNGTTASPSTYSGILEHWASHGFVVIAANTSNAGTGQDMLNCVDYLTTQNNRSTGTYANKLDLNRIGAAGHSQGGGGTIMAGQDYRIKVTAPFQPYTIGLGHNSSSQSNQNGPMFLMTGSADTIASPTLNALPVYNRANVPVFWGELSGASHFEPVGSAGDFRGPSTAWFRYHLMDDASAEDTFYGSNADLCTDNDWDVRRKGIN
B2: unnamed (protein)
chain: B1 chain with L184A, A273C
B3: unnamed (protein)
chain: B1 chain with Y180W, N214S, V218I, A273C
B4: unnamed (protein)
chain: B1 chain with Q157M, A273C
B5: unnamed (protein)
chain: B1 chain with C126A, A273C
B6: unnamed (protein)
chain: B1 chain with H186A, A273C
B7: unnamed (protein)
chain: B1 chain with H236A, A273C
B8: unnamed (protein)
chain: B1 chain with Y180W, A273C
B9: unnamed (protein)
chain: B1 chain with G185A, A273C
B10: unnamed (protein)
chain: B1 chain with G183A, A273C
B11: unnamed (protein)
chain: B1 chain with F237I, A273C
B12: unnamed (protein)
chain: B1 chain with Y180W, N214H, V218F, A273C

Substrate: PET
Experiment: Proxy for plastic degradation [Released monomer concentration (HPLC/LC-MS) (TPA+MHET+BHET)]
Details: pH 9

Protein | Proxy for plastic degradation [µM]
B1 | 10
B2 | 820
B3 | 105
B4 | 315
B5 | 250
B6 | 120
B7 | 10
B8 | 195
B9 | 540
B10 | 600
B11 | 1280
B12 | 85

From the PETadex activity labels (doi:10.1101/2025.08.30.673199)
